Reference: PMC4698195 (Carbohydrate research, 2015)
Each block holds one molecule with its values, some of them ahead of it.

How the values were obtained:
[1] = biological target: UDP-N-acetylglucosamine (UDP-GlcNAc) 2-epimerase (NmSacA) (Neisseria meningitidis, UniProt A0A0U1RGY0); format: biochemical
[2] = test system: CC(=O)N[C@@H]1[C@@H](OP(=O)(O)OP(=O)(O)OC[C@H]2O[C@@H](N3CCC(=O)NC3=O)[C@H](O)[C@@H]2O)O[C@H](CO)[C@@H](O)[C@@H]1O; assay: purified protein
[3] = test system: CC(=O)N[C@@H]1[C@@H](OP(=O)(O)OP(=O)(O)OC[C@H]2O[C@@H](n3ccc(=O)[nH]c3=O)[C@H](O)[C@@H]2O)O[C@H](CO)[C@@H](O)[C@@H]1O; assay: purified protein
[4] = test system: CC(=O)N[C@H]1[C@@H](OP(=O)(O)OP(=O)(O)OC[C@H]2O[C@@H](n3ccc(=O)[nH]c3=O)[C@H](O)[C@@H]2O)O[C@H](CO)[C@@H](O)[C@@H]1O; assay: purified protein
[5] = test system: CCC(=O)N[C@@H]1[C@@H](OP(=O)(O)OP(=O)(O)OC[C@H]2O[C@@H](n3ccc(=O)[nH]c3=O)[C@H](O)[C@@H]2O)O[C@H](CO)[C@@H](O)[C@@H]1O; assay: purified protein
[6] = test system: O=C(CO)N[C@@H]1[C@@H](OP(=O)(O)OP(=O)(O)OC[C@H]2O[C@@H](n3ccc(=O)[nH]c3=O)[C@H](O)[C@@H]2O)O[C@H](CO)[C@@H](O)[C@@H]1O; assay: purified protein

UDP-N-acetylglucosamine (UDP-GlcNAc) 2-epimerase (NmSacA), sequence (A0A0U1RGY0 whole entry): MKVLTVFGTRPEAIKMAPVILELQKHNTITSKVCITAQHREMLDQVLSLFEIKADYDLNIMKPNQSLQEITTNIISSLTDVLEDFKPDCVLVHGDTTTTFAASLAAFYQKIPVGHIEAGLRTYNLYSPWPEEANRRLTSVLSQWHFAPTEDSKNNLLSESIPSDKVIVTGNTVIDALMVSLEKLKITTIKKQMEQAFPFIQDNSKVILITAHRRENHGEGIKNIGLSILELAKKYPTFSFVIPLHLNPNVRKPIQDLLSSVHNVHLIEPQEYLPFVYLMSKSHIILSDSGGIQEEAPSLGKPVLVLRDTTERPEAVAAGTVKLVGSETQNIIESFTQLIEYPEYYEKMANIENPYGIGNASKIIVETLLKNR

- Ki [1]: 14 mM
Molecule: CC(=O)NC1=CO[C@H](CO)[C@@H](O)[C@@H]1O [D, 2-acetamidoglucal]

- Ki [1]: 0.8 mM
Molecule: O=c1ccn([C@@H]2O[C@H](COP(=O)(O)OP(=O)(O)O)[C@@H](O)[C@H]2O)c(=O)[nH]1 [UDP]

Molecule: UDP-N-acetylglucosamine (UDP-GlcNAc) 2-epimerase (NmSacA) (Neisseria meningitidis Z2491)
- Km [2]: 63 ± 7.0 mM
- kcat [2]: 6.7 ± 0.5 s⁻¹
- kcat/Km [2]: 110 M⁻¹ s⁻¹
- Km [3]: 5.2 ± 1.1 mM
- kcat [3]: 52 ± 5 s⁻¹
- kcat/Km [3]: 10000 M⁻¹ s⁻¹
- Km [4]: 3.6 ± 0.5 mM
- kcat [4]: 31 ± 2 s⁻¹
- kcat/Km [4]: 8600 M⁻¹ s⁻¹
- Km [5]: 51 ± 5.0 mM
- kcat [5]: 7.8 ± 0.3 s⁻¹
- kcat/Km [5]: 150 M⁻¹ s⁻¹
- Km [6]: 20 ± 1.9 mM
- kcat [6]: 4.2 ± 0.2 s⁻¹
- kcat/Km [6]: 210 M⁻¹ s⁻¹
